Measurements from patent US20250122280A1, “ANTI-Ly6E ANTIBODIES, IMMUNOCONJUGATES, AND USES THEREOF” (Genentech, Inc., priority 2022, published 2025).
Changes are numbered by the printed parent chain. Names may count otherwise.

Columns and labels:
[1] = biological target: T1, Ly6E on cell lines known to express Ly6E (Kuramochi, NCI-H1781, HCC1569x2) (human, UniProt Q16553 21-101); assay: cell-based or functional assay
T1 sequence: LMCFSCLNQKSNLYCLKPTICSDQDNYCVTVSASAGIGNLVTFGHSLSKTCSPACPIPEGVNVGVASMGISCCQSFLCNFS

[2] = biological target: T1, Ly6E on cell lines known to express …; assay: flow cytometry on Kuramochi cells
Experimental: (§1) Cell lines were cultured as recommended by the ATCC. Prior to staining adherent lines were released by Accutase treatment, all cells were filtered and equilibrated in BD Stain buffer (BSA). […] Samples were fixed in 1% PFA (PBS) prior to analysis. Samples were assessed on a BD LSRFortessa. Following exclusion of dead cells, singlets were assessed for antibody binding using FlowJo software (FIGS. 2A-2C).

[3] = biological target: T1, Ly6E on cell lines known to express …; assay: flow cytometry on NCI-H1781 cells
[4] = biological target: T1, Ly6E on cell lines known to express …; assay: flow cytometry of Fabs on NCI-H1781 cells
Experimental: as §1

B1: chimeric (Ch) Ly6E 3A3 ThioMab drug conjugate with SN36325 (antibody, V domains shown)
VH: AVQLVEFGGGLVQPKESLKISCAASGFTFSTVAMHWVRQAPGKGLEWIARIRTKPVNYETYYADSVKGRFTISRDDSKSMVYLQMDNLKTEDAAMYYCSAPNYYDGTYSFAYWGQGTLVTVSS
VL: DIVMTQSPTSISISVGERVTMNCKASQNVGSNVDWYQQKTGQSPELLIYKASNRYTGVPGRFTGSGSGTDFTFTISNLQAEDLAVYYCMQSDTKYTFGAGTKVEIKR
modifications: engineered cysteine carrying the SN36325 (seco-CBI-dimer) linker-drug on heavy and/or light chain; position not stated
- potency difference from non-target control, 5 day anti-proliferation assay (CellTiter-Glo), cell line NCl-H1781 [1]: > 400 fold

B2: chimeric anti-Ly6E antibody clone 3A3 (rat-human chimeric antibody) (antibody, human IgG1, kappa, V domains shown)
VH: B1 VH
VL: B1 VL
notes: Rat variable domains on human IgG1/kappa constant regions; also called Ch Ly6E 3A3
- binding result [2]: binds

B3: humanized anti-Ly6E (comprising SEQ ID NOs. 3 and 5) (antibody, human IgG1, kappa, V domains shown)
VH: EVQLVESGGGLVQPGGSLKLSCAASGFTFSTVAMHWVRQASGKGLEWVGRIRTKPVNYETYYADSVKGRFTISRDDSKSTVYLQMNSLKTEDTAVYYCSAPNYYDGTYSFAYWGQGTLVTVSS
VL: DIQMTQSPSSLSASVGDRVTITCKASQNVGSNVDWYQQKPGKAPKLLIYKASNRYTGVPSRFSGSGSGTDFTFTISSLQPEDIATYYCMQSETKYTFGQGTKVEIKR
notes: also called the humanized version; 3A3.v2.D92E
- EC50 (read off the curve) [3]: ~2 mg/L

B4: Fab of humanized anti-Ly6E variant LC D92S (Fab, V domains shown)
VH: B3 VH
VL: B3 VL with E92S
notes: Fab made by proteolysis of the IgG; also called 3A3.v2.D92S
- EC50 (read off the curve) [4]: ~0.01 µM

B5: Fab of humanized anti-Ly6E variant LC D92E (Fab, V domains shown)
VH: B3 VH
VL: B3 VL
notes: Fab made by proteolysis of the IgG; also called 3A3.v2.D92E
- EC50 (read off the curve) [4]: ~0.01 µM
